Reference: patent US20210284730A1 (Janssen / Centocor, published 2021)

Assays:
[1] = target: T1, human CD33 (human, UniProt P20138 18-364); assay: FACS binding to MOLM-13 tumor cell line (CD33+)
T1 construct: whole, on cells; The target is CD33 on CD33+ tumor cell lines; also called CD33 on MOLM-13, Kasumi-1, OCI-AML-3 and Kasumi-3 cells

[2] = target: T1, human CD33; assay: FACS binding to Kasumi-1 tumor cell line (CD33+)
[3] = target: T1, human CD33; assay: FACS binding to OCI-AML-3 tumor cell line (CD33+)

T1 sequence (P20138 18-364): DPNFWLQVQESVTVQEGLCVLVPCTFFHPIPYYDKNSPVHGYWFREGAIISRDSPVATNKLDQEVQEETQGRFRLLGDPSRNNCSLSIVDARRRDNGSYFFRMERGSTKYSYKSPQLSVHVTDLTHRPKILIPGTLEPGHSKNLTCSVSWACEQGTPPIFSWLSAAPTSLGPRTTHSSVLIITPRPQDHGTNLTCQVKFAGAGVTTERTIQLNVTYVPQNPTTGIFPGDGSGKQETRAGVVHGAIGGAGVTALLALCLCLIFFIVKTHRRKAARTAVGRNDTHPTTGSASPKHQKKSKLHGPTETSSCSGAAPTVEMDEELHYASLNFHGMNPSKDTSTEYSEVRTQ

EC50 [1]: 134 nM | EC50 [2]: 82.2 nM | EC50 [3]: 16.4 nM
B1: anti-CD33 antibody (clone C33B904) (antibody, V domains shown)
VH: EVQLVESGGGLVQPGRSLRLSCAASGFTFDDYAMHWVRQAPGKGLEWVSGIGWSGGSIVYADSVKGRFTISRDNAKNSLYLQMNSLRAEDTALYYCAKDSPYGDFFDYWGQGTLVTVSS
VL: DIVMTQSPDSLAVSLGERATINCKSSQTVFYSSNNKNYLAWYQQKPGQPPKLLISWASTRKSGVPDRFSGSGSGTDFTLTVSSLQAEDVAVYYCQHYYSTPYTFGQGTKLEIK
notes: also called anti-CD33 clone C33B904; anti-CD33 mAb
